Measurements: patent US20200353049A1

Assays:
[1] = target: IL-22R1a extracellular domain (ECD) (UniProt Q8N6P7); test: potency assay (binding ELISA on plate-coated IL-22R1a ECD), relative to reference standard (100%); stored 25 C, 3 months
[2] = target: IL-22R1a extracellular domain (ECD) (UniProt Q8N6P7); test: binding ELISA on plate-coated IL-22R1a ECD, relative to Reference Standard (100%); stored -20 C, 24 months
[3] = target: IL-22R1a extracellular domain (ECD) (UniProt Q8N6P7); test: potency assay (binding ELISA on plate-coated IL-22R1a ECD), relative to reference standard (100%); stored 25 C, 6 months
[4] = target: IL-22R1a extracellular domain (ECD) (UniProt Q8N6P7); test: potency assay (binding ELISA on plate-coated IL-22R1a ECD), relative to reference standard (100%); stored 5 C, 9 months
[5] = target: IL-22R1a extracellular domain (ECD) (UniProt Q8N6P7); test: potency assay (binding ELISA on plate-coated IL-22R1a ECD), relative to reference standard (100%); stored 5 C, 30 months
[6] = target: IL-22R1a extracellular domain (ECD) (UniProt Q8N6P7); test: potency assay (binding ELISA on plate-coated IL-22R1a ECD), relative to reference standard (100%); stored 5 C, 3 months

Sequence of UniProt Q8N6P7 (Q8N6P7 16-228 limits assumed): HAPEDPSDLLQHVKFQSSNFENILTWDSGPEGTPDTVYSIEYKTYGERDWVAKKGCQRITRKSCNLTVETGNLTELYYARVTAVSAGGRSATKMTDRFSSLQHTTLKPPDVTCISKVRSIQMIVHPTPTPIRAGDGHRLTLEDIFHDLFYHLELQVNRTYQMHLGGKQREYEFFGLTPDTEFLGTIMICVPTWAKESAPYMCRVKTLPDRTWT

Potency (% relative potency) (% relative potency) [1]: 57 | Potency by Binding Assay (% relative potency) (% relative potency) [2]: 70 | Potency (% relative potency) (% relative potency) [3]: 47 | Potency (% relative potency) (% relative potency) [4]: 63 | Potency (% relative potency) (% relative potency) [5]: 65 | Potency (% relative potency) (% relative potency) [6]: 73
Substance: IL-22 Fc fusion protein
